The chains are these.
B1: ADP284 (protein)
chain: SNAYSSPSVVLASYNHDGTRNILDDFREAYFWLRQNTDEHARVMSWWDYGYQIAGMANRTTLVDNNTWNNSHIALVGKAMSSNETAAYKIMRTLDVDYVLVIFGGVIGYSGDDINKFLWMVRIAEGEHPKDIRESDYFTPQGEFRVDKAGSPTLLNCLMYKMSYYRFGEMQLDFRTPPGFDRTRNAEIGNKDIKFKHLEEAFTSEHWLVRIYKVKAPDNRETLDHKPRVTNIFPKQKYLSKKTTKRKRGYIKNKLVFKKGKKISKKTV
modifications: bait human Fc-tagged dimer
B2: ADP268 (protein)
chain: WEYGDLHLFGPNQRPAPCYDPCEAVLVESIPEGLDFPNASTGNPSTSQAWLGLLAGAHSSLDIASFYWTLTNNDTHTQEPSAQQGEEVLRQLQTLAPKGVNVRIAVSKPSGPQPQADLQALLQSGAQVRMVDMQKLTHGVLHTKFWVVDQTHFYLGSANMDWRSLTQVKELGVVMYNCSCLARDLTKIFEAYWFLGQAGSSIPSTWPRFYDTRYNQETPMEICLNGTPALAYLASAPPPLCPSGRTPDLKALLNVVDNARSFIYVAVMNYLPTLEFSHPHRFWPAIDDGLRRATYERGVKVRLLISCWGHSEPSMRAFLLSLAALRDNHTHSDIQVKLFVVPADEAQARIPYARVNHNKYMVTERATYIGTSNWSGNYFTETAGTSLLVTQNGRGGLRSQLEAIFLRDWDSPYSHDLDTSADSVGNACRLL
modifications: bait human Fc-tagged dimer
B3: ADP320 (protein)
chain: MAAAPGLLVWLLVLRLPWRVPGQLDPSTGRRFSEHKLCADDECSMLMYRGEALEDFTGPDCRFVNFKKGDPVYVYYKLARGWPEVWAGSVGRTFGYFPKDLIQVVHEYTKEELQVPTDETDFVCFDGGRDDFHNYNVEELLGFLELYNSAATDSEKAVEKTLQDMEKNPELSKEREPEPEPVEANSEESDSVFSENTEDLQEQFTTQKHHSHANSQANHAQGEQASFESFEEMLQDKLKVPESENNKTSNSSQVSNEQDKIDAYKLLKKEMTLDLKTKFGSTADALVSDDETTRLVTSLEDDFDEELDTEYYAVGKEDEENQEDFDELPLLTFTDGEDMKTPAKSGVEKYPTDKEQNSNEEDKVQLTVPPGIKNDDKNILTTWGDTIFSIVTGGEETRDTMDLESSSSEEEKEDDDDALVPDSKQGKPQSATDYSDPDNVDDGLFIVDIPKTNNDKEVNAEHHIKGKGRGVQESKRGLVQDKTELEDENQEGMTVHSSVHSNNLNSMPAAEKGKDTLKSAYDDTENDLKGAAIHISKGMLHEEKPGEQILEGGSESESAQKAAGNQMNDRKIQQESLGSAPLMGDDHPNASRDSVEGDALVNGAKLHTLSVEHQREELKEELVLKTQNQPRFSSPDEIDLPRELEDEVPILGRNLPWQQERDVAATASKQMSEKIRLSEGEAKEDSLDEEFFHHKAMQGTEVGQTDQTDSTGGPAFLSKVEEDDYPSEELLEDENAINAKRSKEKNPGNQGRQFDVNLQVPDRAVLGTIHPDPEIEESKQETSMILDSEKTSETAAKGVNTGGREPNTMVEKERPLADKKAQRPFERSDFSDSIKIQTPELGEVFQNKDSDYLKNDNPEEHLKTSGLAGEPEGELSKEDHENTEKYMGTESQGSAAAEPEDDSFHWTPHTSVEPGHSDKREDLLIISSFFKEQQSLQRFQKYFNVHELEALLQEMSSKLKSAQQESLPYNMEKVLDKVFRASESQILSIAEKMLDTRVAENRDLGMNENNIFEEAAVLDDIQDLIYFVRYKHSTAEETATLVMAPPLEEGLGGAMEEMQPLHEDNFSREKTAELNVQVPEEPTHLDQRVIGDTHASEVSQKPNTEKDLDPGPVTTEDTPMDAIDANKQPETAAEEPASVTPLENAILLIYSFMFYLTKSLVATLPD
modifications: bait human Fc-tagged dimer
B4: ADP151 (protein)
chain: MALTLSVLICLGLSVGPRTCVQAGTLPKPTLWAEPASVIARGKPVTLWCQGPLETEEYRLDKEGLPWARKRQNPLEPGAKAKFHIPSTVYDSAGRYRCYYETPAGWSEPSDPLELVATGFYAEPTLLALPSPVVASGGNVTLQCDTLDGLLTFVLVEEEQKLPRTLYSQKLPKGPSQALFPVGPVTPSCRWRFRCYYYYRKNPQVWSNPSDLLEILVPGVSRKPSLLIPQGSVVARGGSLTLQCRSDVGYDIFVLYKEGEHDLVQGSGQQPQAGLSQANFTLGPVSRSHGGQYRCYGAHNLSPRWSAPSDPLDILIAGLIPDIPALSVQPGPKVASGENVTLLCQSWHQIDTFFLTKEGAAHPPLCLKSKYQSYRHQAEFSMSPVTSAQGGTYRCYSAIRSYPYLLSSPSYPQELVVSGPSGDPSLSPTGSTPTPGPEDQPLTPTGLDPQSGLG
modifications: bait human Fc-tagged dimer
B5: ADP115 (protein)
chain: MARPGQRWLGKWLVAMVVWALCRLATPLAKNLEPVSWSSLNPKFLSGKGLVIYPKIGDKLDIICPRAEAGRPYEYYKLYLVRPEQAAACSTVLDPNVLVTCNRPEQEIRFTIKFQEFSPNYMGLEFKKHHDYYITSTSNGSLEGLENREGGVCRTRTMKIIMKVGQDPNAVTPEQLTTSRPSKEADNTVKMATQAPGSRGSLGDSDGKHETVNQEEKSGPGASGGSSGDPDGFFNSKVAL
modifications: bait human Fc-tagged dimer
B6: ADP267 (protein)
chain: CKYKKSSGQLWSWMVCLAGLCAVCLLILSPFWGLILFSVSCFLMYTYLSGQELLPVDQKAVLVTGGDCGLGHALCKYLDELGFTVFAGVLNENGPGAEELRRTCSPRLSVLQMDITKPVQIKDAYSKVAAMLQDRGLWAVINNAGVLGFPTDGELLLMTDYKQCMAVNFFGTVEVTKTFLPLLRKSKGRLVNVSSMGGGAPMERLASYGSSKAAVTMFSSVMRLELSKWGIKVASIQPGGFLTNIAGTSDKWEKLEKDILDHLPAEVQEDYGQDYILAQRNFLLLINSLASKDFSPVLRDIQHAILAKSPFAYYTPGKGAYLWICLAHYLPIGIYDYFAKRHFGQDKPMPRALRMPNYKKKAT
modifications: bait human Fc-tagged dimer
B7: ADP342 (protein)
chain: MATQLPAYVAILLFYVSRASCQDTFTAAVYEHAAILPNATLTPVSREEALALMNRNLDILEGAITSAADQGAHIIVTPEDAIYGWNFNRDSLYPYLEDIPDPEVNWIPCNNRNRFGQTPVQERLSCLAKNNSIYVVANIGDKKPCDTSDPQCPPDGRYQYNTDVVFDSQGKLVARYHKQNLFMGENQFNVPKEPEIVTFNTTFGSFGIFTCFDILFHDPAVTLVKDFHVDTIVFPTAWMNVLPHLSAVEFHSAWAMGMRVNFLASNIHYPSKKMTGSGIYAPNSSRAFHYDMKTEEGKLLLSQLDSHPSHSAVVNWTSYASSIEALSSGNKEFKGTVFFDEFTFVKLTGVAGNYTVCQKDLCCHLSYKMSENIPNEVYALGAFDGLHTVEGRYYLQICTLLKCKTTNLNTCGDSAETASTRFEMFSLSGTFGTQYVFPEVLLSENQLAPGEFQVSTDGRLFSLKPTSGPVLTVTLFGRLYEKDWASNASSGLT
modifications: bait human Fc-tagged dimer
B8: ADP377 (protein)
chain: FSECNKCDEKKERGLPAGDVLEPVQKPHEGPGEMGKPVVIPKEDQEKMKEMFKINQFNLMASEMIALNRSLPDVRLEGCKTKVYPDNLPTTSVVIVFHNEAWSTLLRTVHSVINRSPRHMIEEIVLVDDASERDFLKRPLESYVKKLKVPVHVIRMEQRSGLIRARLKGAAVSKGQVITFLDAHCECTVGWLEPLLARIKHDRRTVVCPIIDVISDDTFEYMAGSDMTYGGFNWKLNFRWYPVPQREMDRRKGDRTLPVRTPTMAGGLFSIDRDYFQEIGTYDAGMDIWGGENLEISFRIWQCGGTLEIVTCSHVGHVFRKATPYTFPGGTGQIINKNNRRLAEVWMDEFKNFFYIISPGVTKVDYGDISSRVGLRHKLQCKPFSWYLENIYPDSQIPRHYFSLGEIRNVETNQCLDNMARKENEKVGIFNCHGMGGNQVFSYTANKEIRTDDLCLDVSKLNGPVTMLKCHHLKGNQLWEYDPVKLTLQHVNSNQCLDKATEEDSQVPSIRDCNGSRSQQWLLRNVTLPEIF
modifications: bait human Fc-tagged dimer

Sequence of Circumsporozoite protein (CSP) (Q7K740 19-374): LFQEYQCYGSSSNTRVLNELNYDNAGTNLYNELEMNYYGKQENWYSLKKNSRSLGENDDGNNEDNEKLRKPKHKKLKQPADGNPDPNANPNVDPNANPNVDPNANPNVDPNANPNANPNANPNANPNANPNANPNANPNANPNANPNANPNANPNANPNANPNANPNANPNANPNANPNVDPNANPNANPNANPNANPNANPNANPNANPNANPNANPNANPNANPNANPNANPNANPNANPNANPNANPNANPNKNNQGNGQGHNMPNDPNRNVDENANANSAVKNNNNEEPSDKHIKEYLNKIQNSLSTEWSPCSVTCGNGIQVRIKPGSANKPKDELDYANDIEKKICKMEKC

The experiment addresses Circumsporozoite protein (CSP) (Plasmodium falciparum (isolate 3D7), UniProt Q7K740). Kind of experiment: AVEXIS screen signal:noise (double-corrected).
Take B1: the binding score was 0.868. To B2 belongs 0.585; to B3, 1.04; to B4, 1.33. To B5 belongs 1.09.

Take B6: the binding score stood at 0.806.

In turn, B7 displayed a binding score of 1.71. As for B8, the binding score is 0.747.

Values taken from publication PMC11098746 (2024).
